Experimental data: patent publication US20030191054A1

How the values were obtained:
[1] = target: purified recombinant BAG-1 (beginning at residue 116 of SEQ ID NO:2) (human); experiment: surface plasmon resonance (BIAcore), KD=Kd/Ka
[2] = target: purified recombinant BAG-3 (SEQ ID NO:6) (human); experiment: surface plasmon resonance (BIAcore), KD=Kd/Ka
[3] = target: purified recombinant BAG-2 (SEQ ID NO:4) (human); experiment: surface plasmon resonance (BIAcore), KD=Kd/Ka
[4] = target: purified recombinant BAG-1 (beginning at residue 116 of SEQ ID NO:2) (human); experiment: surface plasmon resonance (BIAcore), BAG protein immobilized
[5] = target: purified recombinant BAG-3 (SEQ ID NO:6) (human); experiment: as above
[6] = target: purified recombinant BAG-2 (SEQ ID NO:4) (human); experiment: as above

- Kd [1]: 1.4 nM
- Kd [2]: 7.4 nM
- Kd [3]: 2.4 nM
- koff [4]: 0.0003 s⁻¹
- kon [4]: 210000 M⁻¹ s⁻¹
- koff [5]: 0.0017 s⁻¹
- kon [5]: 240000 M⁻¹ s⁻¹
- koff [6]: 0.0005 s⁻¹
- kon [6]: 210000 M⁻¹ s⁻¹
Substance: Hsc70 in the soluble phase of the BIAcore assay
